The values that follow are results of earlier work, collected in PMC11631806.

In the data set the target is Cys32 (UniProt position 32, FSATWCGPCKM). To be noted: not stated (reduced dithiol form implied by thiol titration).

The pKa is the negative logarithm of the acid dissociation constant. As to “Thioredoxin (cytosolic Trx, Trx1) (Homo sapiens (inferred; the article does not name the species for these values))”, the pKa is given as 6.3 ± 0.1.
